From patent publication US20230272089A1 (SYNTHEKINE, published 2023)

Target: T1, hIL2Rg ECD antigen (human, UniProt P31785 23-262)
T1 construct: Antigen of biopanning and PE-ELISA; also called extracellular domain of human IL2Rg; CD132 ECD
T1 sequence: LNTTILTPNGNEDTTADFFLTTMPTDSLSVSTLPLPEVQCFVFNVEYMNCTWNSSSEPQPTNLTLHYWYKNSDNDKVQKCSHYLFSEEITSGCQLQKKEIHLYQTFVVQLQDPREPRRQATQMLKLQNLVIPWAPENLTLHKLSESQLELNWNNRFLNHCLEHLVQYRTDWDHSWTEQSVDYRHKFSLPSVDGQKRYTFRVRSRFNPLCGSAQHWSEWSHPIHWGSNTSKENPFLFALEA
Assay: periplasmic extract ELISA (PE-ELISA) of phage clones after biopanning

B1: hIL2Rg_VHH-15 (VHH)
VHH: QVQLQESGGGLVQPGGSLRLSCAASGFTFSSAHMSWVRQAPGKGREWIASIYSGGGTFYADSVKGRFTISRDNAKNTLYLQLNSLKAEDTAMYYCATNRLHYYSDDDSLRGQGTQVTVSS
notes: Periplasmic extract of a phage clone, as in the PE-ELISA; not shown: HA/His tag of the pMECS phagemid
Question: Does B1 bind?
Answer: Result: binds
